From article PMC9482650, “Quantitative fragmentomics allow affinity mapping of interactomes” (Nature Communications, 2022)

T1: APBA3_1, O96018
T1 sequence (O96018 389-490, limits assumed, looked up): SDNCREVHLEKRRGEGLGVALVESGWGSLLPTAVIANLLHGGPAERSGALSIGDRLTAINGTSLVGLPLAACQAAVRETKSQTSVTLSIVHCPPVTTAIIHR

T2: ARHGAP21, Q5T5U3
T2 sequence (Q5T5U3 45-169, limits assumed, looked up): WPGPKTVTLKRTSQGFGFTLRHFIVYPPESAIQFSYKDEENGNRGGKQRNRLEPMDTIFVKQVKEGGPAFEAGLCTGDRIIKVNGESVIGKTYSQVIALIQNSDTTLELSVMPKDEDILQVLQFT

T3: CARD11, Q9BXL7
T3 sequence (Q9BXL7 662-765, limits assumed, looked up): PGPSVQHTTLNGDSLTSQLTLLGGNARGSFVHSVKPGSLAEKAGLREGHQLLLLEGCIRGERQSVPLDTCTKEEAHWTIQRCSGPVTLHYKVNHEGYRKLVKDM

T4: DVL3, Q92997
T4 sequence (Q92997 244-331, limits assumed, looked up): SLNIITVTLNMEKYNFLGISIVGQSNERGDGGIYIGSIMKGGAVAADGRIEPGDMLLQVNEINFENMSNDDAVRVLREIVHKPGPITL

T5: MPDZ_10, O75970
T5 sequence (O75970 1624-1722, limits assumed, looked up): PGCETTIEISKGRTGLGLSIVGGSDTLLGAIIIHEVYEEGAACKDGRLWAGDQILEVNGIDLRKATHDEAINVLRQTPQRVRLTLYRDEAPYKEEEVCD

T6: MPP7, Q5T2T1
T6 sequence (Q5T2T1 134-230, limits assumed, looked up): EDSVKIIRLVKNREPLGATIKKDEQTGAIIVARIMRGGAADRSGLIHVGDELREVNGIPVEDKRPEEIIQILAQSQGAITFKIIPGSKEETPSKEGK

T7: NHERF3_4, Q5T2W1
T7 sequence (Q5T2W1 373-468, limits assumed, looked up): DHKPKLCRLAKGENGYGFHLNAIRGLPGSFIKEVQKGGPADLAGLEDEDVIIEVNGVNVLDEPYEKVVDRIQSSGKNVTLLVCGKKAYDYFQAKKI

T8: RADIL, Q96JH8
T8 sequence (Q96JH8 971-1071, limits assumed, looked up): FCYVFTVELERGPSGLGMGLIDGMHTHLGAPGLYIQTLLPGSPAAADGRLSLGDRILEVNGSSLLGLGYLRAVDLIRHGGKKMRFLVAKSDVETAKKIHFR

B1: GAB3, Q8WWW8 (peptide)
chain: EWTDERQSKV
B2: SEMA4C, Q9C0C4 (peptide)
chain: PDSNPEESSV
B3: CLDN9, O95484 (peptide)
chain: ASGLDKRDYV

These binders were tested against T1, APBA3_1, O96018 (assay: holdup assay). Conditions: plain residues with an end cap or a label only (N-terminal biotin on a linker: ado-ado).
Design: key: below the threshold = too weak to quantify, mostly under pKd 3.1 to 4

Row | Binder | pKd
1 | B1 | below the threshold
2 | B2 | below the threshold
3 | B3 | below the threshold

Each binder was assayed against T2, ARHGAP21, Q5T5U3 (assay: holdup assay). Conditions: plain residues with an end cap or a label only (N-terminal biotin on a linker: ado-ado).
Design: key: below the threshold = too weak to quantify, mostly under pKd 3.1 to 4

Row | Binder | pKd
4 | B1 | 4.07
5 | B2 | 4.09
6 | B3 | below the threshold

These binders were tested against ARHGEF12, Q9NZN5-2 (assay: holdup assay). Conditions: plain residues with an end cap or a label only (N-terminal biotin on a linker: ado-ado).
Chain of ARHGEF12, Q9NZN5-2 (Q9NZN5 other isoform, or with tags, fused parts or gaps): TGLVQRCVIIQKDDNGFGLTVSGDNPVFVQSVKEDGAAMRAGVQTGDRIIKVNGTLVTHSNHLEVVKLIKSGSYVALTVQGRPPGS
Design: key: below the threshold = too weak to quantify, mostly under pKd 3.1 to 4

Row | Binder | pKd
7 | B1 | 3.68
8 | B2 | 3.71
9 | B3 | below the threshold

What follows are binders tested against T3, CARD11, Q9BXL7 (assay: holdup assay). Conditions: plain residues with an end cap or a label only (N-terminal biotin on a linker: ado-ado).
Design: key: below the threshold = too weak to quantify, mostly under pKd 3.1 to 4

Row | Binder | pKd
10 | B1 | below the threshold
11 | B2 | below the threshold
12 | B3 | below the threshold

Each binder was assayed against DLG2_2, Q15700 (assay: holdup assay). Conditions: plain residues with an end cap or a label only (N-terminal biotin on a linker: ado-ado).
Chain of DLG2_2, Q15700 (Q15700 189-283): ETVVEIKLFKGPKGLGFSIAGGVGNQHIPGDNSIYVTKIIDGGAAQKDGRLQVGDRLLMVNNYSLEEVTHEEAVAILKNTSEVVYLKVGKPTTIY
Design: key: below the threshold = too weak to quantify, mostly under pKd 3.1 to 4

Row | Binder | pKd
13 | B1 | 3.89
14 | B2 | 3.85
15 | B3 | below the threshold

What follows are binders tested against DLG4_1, P78352 (assay: holdup assay). Conditions: plain residues with an end cap or a label only (N-terminal biotin on a linker: ado-ado).
Chain of DLG4_1, P78352 (P78352 62-152): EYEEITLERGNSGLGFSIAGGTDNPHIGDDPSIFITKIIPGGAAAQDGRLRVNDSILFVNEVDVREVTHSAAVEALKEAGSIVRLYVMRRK
Design: key: below the threshold = too weak to quantify, mostly under pKd 3.1 to 4

Row | Binder | pKd
16 | B1 | 3.79
17 | B2 | 3.99
18 | B3 | below the threshold

The binders below were run against T4, DVL3, Q92997 (assay: holdup assay). Conditions: plain residues with an end cap or a label only (N-terminal biotin on a linker: ado-ado).
Design: key: below the threshold = too weak to quantify, mostly under pKd 3.1 to 4

Row | Binder | pKd
19 | B1 | below the threshold
20 | B2 | below the threshold
21 | B3 | below the threshold

These binders were tested against FRMPD2_3, Q68DX3 (assay: holdup assay). Conditions: plain residues with an end cap or a label only (N-terminal biotin on a linker: ado-ado).
Chain of FRMPD2_3, Q68DX3 (Q68DX3 1073-1166): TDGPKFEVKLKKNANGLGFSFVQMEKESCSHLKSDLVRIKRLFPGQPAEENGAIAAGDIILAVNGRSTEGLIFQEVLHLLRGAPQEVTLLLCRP
Design: key: below the threshold = too weak to quantify, mostly under pKd 3.1 to 4

Row | Binder | pKd
22 | B1 | 3.55
23 | B2 | 3.54
24 | B3 | below the threshold

These binders were tested against FRMPD4, Q14CM0 (assay: holdup assay). Conditions: plain residues with an end cap or a label only (N-terminal biotin on a linker: ado-ado).
Chain of FRMPD4, Q14CM0 (Q14CM0 67-160): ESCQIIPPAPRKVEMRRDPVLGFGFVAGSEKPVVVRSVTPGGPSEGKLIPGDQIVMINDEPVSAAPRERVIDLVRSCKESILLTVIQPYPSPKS
Design: key: below the threshold = too weak to quantify, mostly under pKd 3.1 to 4

Row | Binder | pKd
25 | B1 | below the threshold
26 | B2 | below the threshold
27 | B3 | below the threshold

Each binder was assayed against GORASP1, Q9BQQ3 (assay: holdup assay). Conditions: plain residues with an end cap or a label only (N-terminal biotin on a linker: ado-ado).
Chain of GORASP1, Q9BQQ3 (Q9BQQ3 1-208): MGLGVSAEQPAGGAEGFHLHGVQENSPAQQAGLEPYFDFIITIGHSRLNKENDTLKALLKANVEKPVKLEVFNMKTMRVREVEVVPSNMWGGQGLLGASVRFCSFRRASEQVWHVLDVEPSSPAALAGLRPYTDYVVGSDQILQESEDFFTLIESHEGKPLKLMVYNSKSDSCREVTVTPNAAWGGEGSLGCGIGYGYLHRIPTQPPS
Design: key: below the threshold = too weak to quantify, mostly under pKd 3.1 to 4

Row | Binder | pKd
28 | B1 | below the threshold
29 | B2 | below the threshold
30 | B3 | below the threshold

The binders below were run against GRIP2_5, Q9C0E4 (assay: holdup assay). Conditions: plain residues with an end cap or a label only (N-terminal biotin on a linker: ado-ado).
Chain of GRIP2_5, Q9C0E4 (Q9C0E4 544-642): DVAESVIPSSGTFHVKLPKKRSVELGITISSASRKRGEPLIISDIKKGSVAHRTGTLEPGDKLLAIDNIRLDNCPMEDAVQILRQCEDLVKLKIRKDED
Design: key: below the threshold = too weak to quantify, mostly under pKd 3.1 to 4

Row | Binder | pKd
31 | B1 | below the threshold
32 | B2 | below the threshold
33 | B3 | below the threshold

What follows are binders tested against Inadl_10, Q8NI35 (assay: holdup assay). Conditions: plain residues with an end cap or a label only (N-terminal biotin on a linker: ado-ado).
Chain of Inadl_10, Q8NI35 (Q8NI35 1673-1763): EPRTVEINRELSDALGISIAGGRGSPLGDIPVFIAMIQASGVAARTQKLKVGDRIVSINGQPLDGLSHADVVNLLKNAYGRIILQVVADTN
Design: key: below the threshold = too weak to quantify, mostly under pKd 3.1 to 4

Row | Binder | pKd
34 | B1 | below the threshold
35 | B2 | below the threshold
36 | B3 | below the threshold

These binders were tested against Inadl_6, Q8NI35 (assay: holdup assay). Conditions: plain residues with an end cap or a label only (N-terminal biotin on a linker: ado-ado).
Chain of Inadl_6, Q8NI35 (Q8NI35 1058-1167): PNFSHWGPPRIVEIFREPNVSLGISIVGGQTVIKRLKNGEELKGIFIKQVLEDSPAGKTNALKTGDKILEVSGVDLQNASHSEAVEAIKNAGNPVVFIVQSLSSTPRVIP
Design: key: below the threshold = too weak to quantify, mostly under pKd 3.1 to 4

Row | Binder | pKd
37 | B1 | below the threshold
38 | B2 | below the threshold
39 | B3 | below the threshold

These binders were tested against Inadl_9, Q8NI35 (assay: holdup assay). Conditions: plain residues with an end cap or a label only (N-terminal biotin on a linker: ado-ado).
Chain of Inadl_9, Q8NI35 (Q8NI35 1530-1615): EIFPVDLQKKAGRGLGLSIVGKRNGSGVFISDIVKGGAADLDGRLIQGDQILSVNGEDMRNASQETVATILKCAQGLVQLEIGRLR
Design: key: below the threshold = too weak to quantify, mostly under pKd 3.1 to 4

Row | Binder | pKd
40 | B1 | 3.56
41 | B2 | 3.57
42 | B3 | 3.51

What follows are binders tested against LDB3, O75112 (assay: holdup assay). Conditions: plain residues with an end cap or a label only (N-terminal biotin on a linker: ado-ado).
Chain of LDB3, O75112 (O75112 1-94): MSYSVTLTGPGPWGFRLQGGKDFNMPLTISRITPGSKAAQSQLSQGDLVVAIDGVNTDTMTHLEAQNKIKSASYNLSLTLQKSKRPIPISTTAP
Design: key: below the threshold = too weak to quantify, mostly under pKd 3.1 to 4

Row | Binder | pKd
43 | B1 | below the threshold
44 | B2 | below the threshold
45 | B3 | below the threshold

What follows are binders tested against LNX1_1, Q8TBB1 (assay: holdup assay). Conditions: plain residues with an end cap or a label only (N-terminal biotin on a linker: ado-ado).
Chain of LNX1_1, Q8TBB1 (Q8TBB1 261-371): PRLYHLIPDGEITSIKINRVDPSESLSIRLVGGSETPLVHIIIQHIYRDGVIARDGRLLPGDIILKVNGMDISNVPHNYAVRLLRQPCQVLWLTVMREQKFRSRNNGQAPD
Design: key: below the threshold = too weak to quantify, mostly under pKd 3.1 to 4

Row | Binder | pKd
46 | B1 | 3.52
47 | B2 | below the threshold
48 | B3 | below the threshold

What follows are binders tested against LNX1_2, Q8TBB1 (assay: holdup assay). Conditions: plain residues with an end cap or a label only (N-terminal biotin on a linker: ado-ado).
Chain of LNX1_2, Q8TBB1 (Q8TBB1 371-470): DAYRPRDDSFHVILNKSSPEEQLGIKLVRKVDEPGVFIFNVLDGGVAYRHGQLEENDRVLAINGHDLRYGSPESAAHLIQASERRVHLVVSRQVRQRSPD
Design: key: below the threshold = too weak to quantify, mostly under pKd 3.1 to 4

Row | Binder | pKd
49 | B1 | below the threshold
50 | B2 | below the threshold
51 | B3 | below the threshold

These binders were tested against MAGI1_1, Q96QZ7 (assay: holdup assay). Conditions: plain residues with an end cap or a label only (N-terminal biotin on a linker: ado-ado).
Chain of MAGI1_1, Q96QZ7 (Q96QZ7 1-106): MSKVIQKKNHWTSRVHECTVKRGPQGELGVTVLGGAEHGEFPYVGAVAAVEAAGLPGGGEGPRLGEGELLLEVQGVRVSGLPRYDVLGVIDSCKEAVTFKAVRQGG
Design: key: below the threshold = too weak to quantify, mostly under pKd 3.1 to 4

Row | Binder | pKd
52 | B1 | below the threshold
53 | B2 | 3.57
54 | B3 | below the threshold

What follows are binders tested against MAGI2_2, Q86UL8 (assay: holdup assay). Conditions: plain residues with an end cap or a label only (N-terminal biotin on a linker: ado-ado).
Chain of MAGI2_2, Q86UL8 (Q86UL8 410-522): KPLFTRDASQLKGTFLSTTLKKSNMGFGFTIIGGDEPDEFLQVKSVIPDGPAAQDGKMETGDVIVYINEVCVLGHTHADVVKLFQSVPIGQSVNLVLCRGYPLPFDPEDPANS
Design: key: below the threshold = too weak to quantify, mostly under pKd 3.1 to 4

Row | Binder | pKd
55 | B1 | below the threshold
56 | B2 | below the threshold
57 | B3 | below the threshold

Each binder was assayed against MAGI2_3, Q86UL8 (assay: holdup assay). Conditions: plain residues with an end cap or a label only (N-terminal biotin on a linker: ado-ado).
Chain of MAGI2_3, Q86UL8 (Q86UL8 600-682): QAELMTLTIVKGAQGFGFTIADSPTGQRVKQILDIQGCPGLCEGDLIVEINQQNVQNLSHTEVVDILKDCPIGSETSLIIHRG
Design: key: below the threshold = too weak to quantify, mostly under pKd 3.1 to 4

Row | Binder | pKd
58 | B1 | below the threshold
59 | B2 | below the threshold
60 | B3 | below the threshold

Each binder was assayed against MAGI2_4, Q86UL8 (assay: holdup assay). Conditions: plain residues with an end cap or a label only (N-terminal biotin on a linker: ado-ado).
Chain of MAGI2_4, Q86UL8 (Q86UL8 772-865): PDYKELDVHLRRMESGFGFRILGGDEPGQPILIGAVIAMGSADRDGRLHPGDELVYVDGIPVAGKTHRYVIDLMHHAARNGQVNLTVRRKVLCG
Design: key: below the threshold = too weak to quantify, mostly under pKd 3.1 to 4

Row | Binder | pKd
61 | B1 | below the threshold
62 | B2 | below the threshold
63 | B3 | below the threshold

What follows are binders tested against MAGI3_2, Q5TCQ9 (assay: holdup assay). Conditions: plain residues with an end cap or a label only (N-terminal biotin on a linker: ado-ado).
Chain of MAGI3_2, Q5TCQ9 (Q5TCQ9 398-503): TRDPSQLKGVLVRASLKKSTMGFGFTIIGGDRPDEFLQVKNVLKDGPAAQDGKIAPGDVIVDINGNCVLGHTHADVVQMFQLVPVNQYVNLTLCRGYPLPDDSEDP
Design: key: below the threshold = too weak to quantify, mostly under pKd 3.1 to 4

Row | Binder | pKd
64 | B1 | 3.6
65 | B2 | 3.77
66 | B3 | below the threshold

The binders below were run against T5, MPDZ_10, O75970 (assay: holdup assay). Conditions: plain residues with an end cap or a label only (N-terminal biotin on a linker: ado-ado).
Design: key: below the threshold = too weak to quantify, mostly under pKd 3.1 to 4

Row | Binder | pKd
67 | B1 | 3.75
68 | B2 | below the threshold
69 | B3 | below the threshold

Each binder was assayed against T6, MPP7, Q5T2T1 (assay: holdup assay). Conditions: plain residues with an end cap or a label only (N-terminal biotin on a linker: ado-ado).
Design: key: below the threshold = too weak to quantify, mostly under pKd 3.1 to 4

Row | Binder | pKd
70 | B1 | below the threshold
71 | B2 | below the threshold
72 | B3 | below the threshold

These binders were tested against T7, NHERF3_4, Q5T2W1 (assay: holdup assay). Conditions: plain residues with an end cap or a label only (N-terminal biotin on a linker: ado-ado).
Design: key: below the threshold = too weak to quantify, mostly under pKd 3.1 to 4

Row | Binder | pKd
73 | B1 | below the threshold
74 | B2 | below the threshold
75 | B3 | below the threshold

Each binder was assayed against NOS1, P29475 (assay: holdup assay). Conditions: plain residues with an end cap or a label only (N-terminal biotin on a linker: ado-ado).
Chain of NOS1, P29475 (P29475 9-101): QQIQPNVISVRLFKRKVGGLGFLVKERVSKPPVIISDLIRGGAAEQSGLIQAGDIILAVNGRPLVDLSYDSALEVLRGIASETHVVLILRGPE
Design: key: below the threshold = too weak to quantify, mostly under pKd 3.1 to 4

Row | Binder | pKd
76 | B1 | below the threshold
77 | B2 | 3.71
78 | B3 | 4.22

These binders were tested against PDZRN4_1, Q6ZMN7 (assay: holdup assay). Conditions: plain residues with an end cap or a label only (N-terminal biotin on a linker: ado-ado).
Chain of PDZRN4_1, Q6ZMN7 (Q6ZMN7 213-318): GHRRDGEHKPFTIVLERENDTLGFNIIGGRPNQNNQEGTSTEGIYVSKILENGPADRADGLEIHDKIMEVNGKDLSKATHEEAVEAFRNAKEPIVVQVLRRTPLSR
Design: key: below the threshold = too weak to quantify, mostly under pKd 3.1 to 4

Row | Binder | pKd
79 | B1 | 3.86
80 | B2 | 4.43
81 | B3 | below the threshold

The binders below were run against PTPN3, P26045 (assay: holdup assay). Conditions: plain residues with an end cap or a label only (N-terminal biotin on a linker: ado-ado).
Chain of PTPN3, P26045 (P26045 505-587): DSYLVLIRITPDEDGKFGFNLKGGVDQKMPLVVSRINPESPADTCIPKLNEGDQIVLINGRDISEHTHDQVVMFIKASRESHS
Design: key: below the threshold = too weak to quantify, mostly under pKd 3.1 to 4

Row | Binder | pKd
82 | B1 | 4.12
83 | B2 | 4.83
84 | B3 | below the threshold

Each binder was assayed against T8, RADIL, Q96JH8 (assay: holdup assay). Conditions: plain residues with an end cap or a label only (N-terminal biotin on a linker: ado-ado).
Design: key: below the threshold = too weak to quantify, mostly under pKd 3.1 to 4

Row | Binder | pKd
85 | B1 | 3.61
86 | B2 | below the threshold
87 | B3 | 4.08

What follows are binders tested against SCRIB_3, Q14160 (assay: holdup assay). Conditions: plain residues with an end cap or a label only (N-terminal biotin on a linker: ado-ado).
Chain of SCRIB_3, Q14160 (Q14160 999-1103): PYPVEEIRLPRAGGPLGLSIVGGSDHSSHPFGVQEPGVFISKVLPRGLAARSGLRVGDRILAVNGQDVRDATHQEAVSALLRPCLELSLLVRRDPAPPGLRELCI
Design: key: below the threshold = too weak to quantify, mostly under pKd 3.1 to 4

Row | Binder | pKd
88 | B1 | below the threshold
89 | B2 | 4.45
90 | B3 | below the threshold
